Measurements as given in patent EP4603109A1 (Sichuan Kelun-Biotech Biopharmaceutical Co., Ltd., dated 2024).

Key:
rat B7-H3-his protein = molecular target: T1, rat B7-H3-his protein (rat, UniProt Q7TPB4 29-248, limits assumed); assay: BLI (ForteBio), ADC captured on Protein A sensor (result 2)
T1 construct: not shown: His tag
T1 sequence (looked up): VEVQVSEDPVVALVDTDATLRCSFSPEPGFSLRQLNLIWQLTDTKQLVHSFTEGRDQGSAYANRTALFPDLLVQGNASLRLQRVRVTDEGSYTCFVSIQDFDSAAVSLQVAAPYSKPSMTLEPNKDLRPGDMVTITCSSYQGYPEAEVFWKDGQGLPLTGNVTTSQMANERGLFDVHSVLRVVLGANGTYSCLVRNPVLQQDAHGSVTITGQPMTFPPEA

[1] = molecular target: T2, B7-H3 on human tumor cell lines (HT29, NCI-N87, HCC1806, HCC827, A375) (human, UniProt Q5ZPR3 29-534); assay: flow cytometry on HCC827 cells (experiment 2)
T2 construct: whole, on cells
T2 sequence (looked up): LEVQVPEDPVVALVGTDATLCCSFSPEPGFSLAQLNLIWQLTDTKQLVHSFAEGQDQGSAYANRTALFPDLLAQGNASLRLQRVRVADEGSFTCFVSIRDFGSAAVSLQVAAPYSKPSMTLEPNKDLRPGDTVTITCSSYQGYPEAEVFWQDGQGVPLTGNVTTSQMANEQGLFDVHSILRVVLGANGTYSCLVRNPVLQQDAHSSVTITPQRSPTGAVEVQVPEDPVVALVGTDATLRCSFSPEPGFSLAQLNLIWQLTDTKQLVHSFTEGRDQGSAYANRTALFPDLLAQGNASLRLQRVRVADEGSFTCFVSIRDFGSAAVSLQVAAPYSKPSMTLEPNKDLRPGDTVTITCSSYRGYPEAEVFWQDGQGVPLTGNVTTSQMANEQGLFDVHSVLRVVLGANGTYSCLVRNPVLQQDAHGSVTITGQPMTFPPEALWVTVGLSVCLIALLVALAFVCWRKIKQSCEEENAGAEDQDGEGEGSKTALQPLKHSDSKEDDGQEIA

[2] = molecular target: T2, B7-H3 on human tumor cell lines (HT29, …); assay: flow cytometry on HT29 cells (experiment 2)
[3] = molecular target: T3, human B7-H3-2Ig-his protein (human, UniProt Q5ZPR3-2 29-245, limits assumed); assay: BLI (ForteBio), ADC on Protein A sensor, antigen 200-3.125 nM, 1:1 global fit (result 2)
T3 construct: the 2Ig form is its isoform 2; not shown: His tag
T3 sequence (looked up): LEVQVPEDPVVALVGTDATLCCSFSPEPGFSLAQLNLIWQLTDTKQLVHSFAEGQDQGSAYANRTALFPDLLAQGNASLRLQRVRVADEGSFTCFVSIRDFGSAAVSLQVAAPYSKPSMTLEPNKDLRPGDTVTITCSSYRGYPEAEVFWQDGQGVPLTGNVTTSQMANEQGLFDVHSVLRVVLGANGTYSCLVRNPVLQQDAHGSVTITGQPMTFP

monkey B7-H3-his protein = monkey B7-H3-his protein (monkey); assay: as above
[4] = molecular target: T4, human B7-H3-4Ig-his protein (human, UniProt Q5ZPR3 29-461, limits assumed); assay: as above
T4 construct: not shown: His tag
T4 sequence (looked up): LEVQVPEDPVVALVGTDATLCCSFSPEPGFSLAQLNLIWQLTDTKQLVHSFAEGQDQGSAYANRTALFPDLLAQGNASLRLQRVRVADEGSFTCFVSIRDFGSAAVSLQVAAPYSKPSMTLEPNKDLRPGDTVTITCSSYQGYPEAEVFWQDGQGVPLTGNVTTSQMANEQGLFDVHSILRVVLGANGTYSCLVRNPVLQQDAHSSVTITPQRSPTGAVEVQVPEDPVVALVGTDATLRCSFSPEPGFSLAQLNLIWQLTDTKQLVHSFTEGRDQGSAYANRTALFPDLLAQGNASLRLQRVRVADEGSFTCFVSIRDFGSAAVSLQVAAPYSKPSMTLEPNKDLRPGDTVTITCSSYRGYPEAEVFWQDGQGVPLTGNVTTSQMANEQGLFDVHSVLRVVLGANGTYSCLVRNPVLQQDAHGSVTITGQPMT

EC50 [1]: 8.05 ng/mL | EC50 [2]: 3.21 ng/mL | Kd [3]: 42 nM | Kd (monkey B7-H3-his protein): 2.57 nM | Kd [4]: 1.04 nM
B1: ADC 17 (2#8890-B-03, DAR 8) (antibody, human IgG1, kappa, V domains shown)
VH: QVQLQESGPGLVQPSGTLSLTCAVSGGSDSSTNWWTWVRQSPGQGLEWIGEISPIGFTSYSPSLRSRVTISVDKSKTQFSLKLSSVTAADTAVYYCARDRLYFAFWGQGTLVTVSS
VL: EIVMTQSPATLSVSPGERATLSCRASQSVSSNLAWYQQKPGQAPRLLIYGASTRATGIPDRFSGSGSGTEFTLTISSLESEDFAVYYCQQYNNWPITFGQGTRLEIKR
modifications: cysteine sulfhydryls carry drug-linker B-03 (sites not stated; DAR 7.82 per antibody)
binding result (rat B7-H3-his protein): no binding (tested: 200 nM (highest antigen concentration))
